Key:
[1] = target: T1, PfTET3 (TET3 aminopeptidase; PfTET3Zn) (Pyrococcus furiosus, UniProt Q8TZW4); experiment: Lys-pNA hydrolysis, pNA release at […] nm, EDTA titration, biphasic fit; format: biochemical; conditions: 85 °C; 5 mM Lys-pNA; 0.1 M HEPES pH 7.2, 316 mM KCl; 10 nM enzyme; metal chelation (M1 Zn2+ removal), not direct binding; first site of two; partial step; read-out: EC50_1
T1 construct: gene PF1861; Recombinant, pET-41c; purified as for PhTET3; homododecamer (about 500 kDa); as purified contains two Zn2+ per active site
T1 sequence (Q8TZW4 1-346): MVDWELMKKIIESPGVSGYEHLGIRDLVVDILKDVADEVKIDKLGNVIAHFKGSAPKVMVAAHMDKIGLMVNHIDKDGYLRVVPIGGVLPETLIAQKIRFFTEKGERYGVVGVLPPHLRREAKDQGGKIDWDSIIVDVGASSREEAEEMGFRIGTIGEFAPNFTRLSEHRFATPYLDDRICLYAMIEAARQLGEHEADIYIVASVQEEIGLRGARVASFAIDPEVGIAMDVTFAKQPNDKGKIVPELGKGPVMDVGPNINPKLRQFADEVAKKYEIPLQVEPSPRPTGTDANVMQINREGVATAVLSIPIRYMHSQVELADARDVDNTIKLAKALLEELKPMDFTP

Glu207 = Glu207 (UniProt position 207, VASVQEEIGLR); experiment: kinetics; conditions: not given for the pH series (standard assay: KCl 316 mM), not given for the pH series (standard assay: 0.1 M HEPES pH 7.2)

Row | EC50 [1] | Compound | pKa (Glu207; 20 °C, PfTET3Co: 300 uM Co2+ present (Co2+ in M1 and M3, Zn2+ in M2)) | pKa (Glu207; 20 °C, PfTET3Zn: as purified, Zn2+ in M1 and M2, no Co2+ added) | pKa (Glu207; 85 °C, PfTET3Co: 300 uM Co2+ present (Co2+ in M1 and M3, Zn2+ in M2)) | pKa (Glu207; 85 °C, PfTET3Zn: as purified, Zn2+ in M1 and M2, no Co2+ added)
1 | 13 µM | O=C(O)CN(CCN(CC(=O)O)CC(=O)O)CC(=O)O [EDTA] | – | – | – | –
2 | – | TET3 aminopeptidase (PfTET3; lysine-specific tetrahedral aminopeptidase) (Pyrococcus furiosus) | 5.6 | 5.9 | 4.45 | 4.75
